From patent publication US20090274682
Numbering of substitutions follows the chain as printed. Names may count otherwise.

Columns and labels:
[1] = target: PP2A core enzyme variant involving truncation of the carboxy-terminus of the catalytic subunit (two C-terminal amino acids removed by chymotrypsin)
[2] = target: PP2A core enzyme involving full-length Cα and AΔN, methylated by LCMT1
[3] = target: PP2A core enzyme (AC heterodimer) involving the full-length A subunit
Sequence of PP2A core enzyme (AC heterodimer) involving the full-length A subunit (chain, as listed by the source, chain 1 of 2): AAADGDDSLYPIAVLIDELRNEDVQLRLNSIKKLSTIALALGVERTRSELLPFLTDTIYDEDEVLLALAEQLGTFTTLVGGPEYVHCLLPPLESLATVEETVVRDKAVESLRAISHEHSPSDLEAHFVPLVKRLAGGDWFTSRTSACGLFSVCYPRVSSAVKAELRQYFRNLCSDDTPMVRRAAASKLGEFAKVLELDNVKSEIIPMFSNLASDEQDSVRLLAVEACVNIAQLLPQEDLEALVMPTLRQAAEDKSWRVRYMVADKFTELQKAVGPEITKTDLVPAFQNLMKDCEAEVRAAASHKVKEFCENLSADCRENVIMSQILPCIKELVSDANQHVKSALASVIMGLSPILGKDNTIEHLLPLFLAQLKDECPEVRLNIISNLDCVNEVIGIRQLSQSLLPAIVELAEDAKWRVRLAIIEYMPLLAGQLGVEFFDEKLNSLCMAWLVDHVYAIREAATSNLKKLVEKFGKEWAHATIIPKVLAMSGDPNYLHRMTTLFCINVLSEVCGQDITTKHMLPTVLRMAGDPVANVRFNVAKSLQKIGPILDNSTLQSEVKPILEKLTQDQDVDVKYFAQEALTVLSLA
Sequence of PP2A core enzyme (AC heterodimer) involving the full-length A subunit (chain, as listed by the source, chain 2 of 2): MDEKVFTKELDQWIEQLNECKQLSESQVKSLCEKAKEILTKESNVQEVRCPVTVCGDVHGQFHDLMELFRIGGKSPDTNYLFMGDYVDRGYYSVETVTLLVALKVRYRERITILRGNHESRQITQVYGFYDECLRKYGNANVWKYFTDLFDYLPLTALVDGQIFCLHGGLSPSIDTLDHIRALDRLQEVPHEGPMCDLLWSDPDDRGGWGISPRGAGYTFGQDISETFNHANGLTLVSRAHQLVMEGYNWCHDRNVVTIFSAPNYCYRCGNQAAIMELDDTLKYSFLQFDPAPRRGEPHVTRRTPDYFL

Sequence of PP2A core enzyme variant involving truncation of the carboxy-terminus of the catalytic subunit (two C-terminal amino acids removed by chymotrypsin) (chain, as listed by the source mutant, chain 1 of 2): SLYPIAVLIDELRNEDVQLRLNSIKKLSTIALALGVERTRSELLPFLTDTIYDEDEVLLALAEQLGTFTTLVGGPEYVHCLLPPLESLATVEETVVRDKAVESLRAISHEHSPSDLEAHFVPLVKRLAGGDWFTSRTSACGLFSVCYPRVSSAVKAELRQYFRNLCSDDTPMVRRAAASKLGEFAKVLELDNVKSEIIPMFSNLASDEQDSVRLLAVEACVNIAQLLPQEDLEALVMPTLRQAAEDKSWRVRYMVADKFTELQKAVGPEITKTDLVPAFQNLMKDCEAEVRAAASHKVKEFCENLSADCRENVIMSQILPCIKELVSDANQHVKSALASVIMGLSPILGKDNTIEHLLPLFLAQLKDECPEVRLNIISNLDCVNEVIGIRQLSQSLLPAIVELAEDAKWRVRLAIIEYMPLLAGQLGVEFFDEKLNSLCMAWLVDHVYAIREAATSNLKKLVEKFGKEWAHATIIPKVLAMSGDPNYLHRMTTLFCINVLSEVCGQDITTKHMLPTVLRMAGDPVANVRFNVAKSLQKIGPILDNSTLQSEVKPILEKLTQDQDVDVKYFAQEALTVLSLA
Sequence of PP2A core enzyme variant involving truncation of the carboxy-terminus of the catalytic subunit (two C-terminal amino acids removed by chymotrypsin) (chain, as listed by the source mutant, chain 2 of 2): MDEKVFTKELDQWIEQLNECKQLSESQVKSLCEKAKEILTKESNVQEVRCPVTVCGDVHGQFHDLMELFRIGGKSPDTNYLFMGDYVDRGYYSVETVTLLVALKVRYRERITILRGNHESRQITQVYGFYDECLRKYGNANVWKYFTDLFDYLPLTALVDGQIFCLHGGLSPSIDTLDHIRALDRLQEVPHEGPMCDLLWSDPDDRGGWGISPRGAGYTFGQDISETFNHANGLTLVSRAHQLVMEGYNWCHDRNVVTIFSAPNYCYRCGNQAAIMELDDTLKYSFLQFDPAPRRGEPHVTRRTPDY
Sequence of PP2A core enzyme involving full-length Cα and AΔN, methylated by LCMT1 (chain, as listed by the source mutant, chain 1 of 2): as the sequence (chain, as listed by the source mutant, chain 1 of 2) above
Sequence of PP2A core enzyme involving full-length Cα and AΔN, methylated by LCMT1 (chain, as listed by the source mutant, chain 2 of 2): as the sequence (chain, as listed by the source, chain 2 of 2) above

B1: Full-length PME-1 (1-386) (protein)
chain: MSALEKSMHLGRLPSRPPLPGSGGSQSGAKMRMGPGRKRDFSPVPWSQYFESMEDVEVENETGKDTFRVYKSGSEGPVLLLLHGGGHSALSWAVFTAAIISRVQCRIVALDLRSHGETKVKNPEDLSAETMAKDVGNVVEAMYGDLPPPIMLIGHSMGGAIAVHTASSNLVPSLLGLCMIDVVEGTAMDALNSMQNFLRGRPKTFKSLENAIEWSVKSGQIRNLESARVSMVGQVKQCEGITSPEGSKSIVEGIIEEEEEDEEGSESISKRKKEDDMETKKDHPYTWRIELAKTEKYWDGWFRGLSNLFLSCPIPKLLLLAGVDRLDKDLTIGQMQGKFQMQVLPQCGHAVHEDAPDKVAEAVATFLIRHRFAEPIGGFQCVFPGC
In the case of B1, the “methylesterase activity of PME-1 after pre-incubation with the PP2A variant and PMSF” value [1] is reported as “pre-incubation with the PP2A variant and PMSF led to marked reduction of PME-1-mediated methylesterase activity”, the “methylesterase activity of PME-1” value [2] is reported as “The methylesterase activity of PME-1 on the PP2A core enzyme involving the AΔN variant was nearly identical to that on the PP2A core enzyme involving the full-length A subunit” and the LCMT1-catalyzed methylation [3] is reported as “the stable complex between PP2A and PME-1 blocks LCMT1-catalyzed methylation (data not shown)”. The “phosphatase activity after incubation at 37° C.” value [3] was “A prolonged incubation time was required for substantial loss of the phosphatase activity in vitro” and the “phosphatase activity towards phosphorylase a upon initial incubation” value [3] was “The PP2A core enzyme, upon initial incubation with various concentrations of PME-1, exhibited full phosphatase activity towards the substrate phosphorylase a”.

B2: PME-1 R369D (protein)
chain: B1 chain with R369D
In the case of B2, the methylesterase activity [3] is reported as “R369D in PME-1 resulted in marked reduction of its methylesterase activity”.

B3: PME-1 M335D (protein)
chain: B1 chain with M335D
With B3 the “Mn2+ bound (ICP-MS) and phosphatase activity with or without manganese chloride” value [3] was “mutation of Met335 to aspartate in PME-1 led to decreased ability to remove the metal ions, and the PP2A-PME-1-M335D complex became readily activated by manganese”.
